Laboratory results as given in paper PMC2710508, “A Peek into Tropomyosin Binding and Unfolding on the Actin Filament” (PLoS ONE, 2009).

Key:
Settings in all cases: both partners purified
[1] = molecular target: T1, F-actin from chicken pectoral skeletal muscle (chicken, UniProt P68139 1-377); assay: differential scanning calorimetry; tropomyosin 15 µM and TnT 70–170 18 µM with phalloidin (36 µM) stabilized F-actin (24 µM), 100 mM NaCl, 10 mM Hepes pH 7.0, 2 mM MgCl2, 1 mM DTT; three heating scans at 1°C/min; peak of unfolding/dissociation of actin-bound tropomyosin
[2] = molecular target: T1, F-actin from chicken pectoral skeletal …; assay: co-sedimentation; tropomyosin 0.1–10 µM with 0.12–12 µM troponin T 70–170 (1.2× molar excess) and 5 µM F-actin, 20°C, 250 mM NaCl, 10 mM TrisHCl pH 7.5, 2 mM MgCl2, 0.5 mM DTT; pellets and supernatants by SDS-PAGE and densitometry; apparent constant (Kapp) and Hill coefficient from a fit to the Hill equation
[3] = molecular target: T1, F-actin from chicken pectoral skeletal …; assay: light scattering temperature scan; unlabeled tropomyosin 6 µM, TnT 70–170, phalloidin (27 µM) stabilized F-actin (18 µM), 100 mM NaCl, 10 mM sodium phosphate pH 7.5, 2 mM MgCl2, 1 mM DTT; 90° scattering at 245 nm, 20–65°C at 1°C/min; temperature of 50% decrease in scattering

B1: P2P3Shift tropomyosin (Y60A/L64A/L106A/A120L) (natural protein)
chain: MDAIKKKMQMLKLDKENALDRAEQAEADKKAAEDRSKQLEDELVSLQKKLKGTEDELDKASEAAKDAQEKLELAEKKATDAEADVASLNRRIQLVEEELDRAQERAATALQKLEEAEKALDESERGMKVIESRAQKDEEKMEIQEIQLKEAKHIAEDADRKYEEVARKLVIIESDLERAEERAELSEGKCAELEEELKTVTNNLKSLEAQAEKYSQKEDKYEEEIKVLSDKLKEAETRAEFAERSVTKLEKSIDDLEDELYAQKLKYKAISEELDHALNDMTSI
notes: striated muscle alpha-tropomyosin, rat, cDNA in pET11d, expressed with an unacetylated N-terminal Met; combines the P2Shift and P3Shift mutations; TnT 70-170 present in every actin experiment; source: E. coli BL21 (DE3), purified (ammonium sulfate fractionation, DE52 cellulose, hydroxylapatite)
- DSC TM of dissociation from F-actin (TM3) [1]: 44.4 °C
- DSC ΔΔH (with minus without F-actin) [1]: 14.4 kcal/mol
- Ka [2]: 1.83e+06 M⁻¹

B2: tropomyosin P2Shift C190S/L71C, unlabeled (natural protein)
chain: not shown
notes: striated muscle alpha-tropomyosin, rat, cDNA in pET11d, expressed with an unacetylated N-terminal Met; Unlabeled form used for light scattering; source: E. coli BL21 (DE3), purified (ammonium sulfate fractionation, DE52 cellulose, hydroxylapatite)
- light scattering TM (half maximal dissociation from F-actin) [3]: 40.7 °C

B3: tropomyosin P3Shift C190S/L113C, unlabeled (natural protein)
chain: not shown
notes: as for B2
- light scattering TM (half maximal dissociation from F-actin) [3]: 41.9 °C
